Data reported in PMC3103603 (Immunity, 2011).

Target: T1, wild-type human B7-H2Ig fusion protein (human, UniProt O75144 19-256)
T1 sequence (looked up): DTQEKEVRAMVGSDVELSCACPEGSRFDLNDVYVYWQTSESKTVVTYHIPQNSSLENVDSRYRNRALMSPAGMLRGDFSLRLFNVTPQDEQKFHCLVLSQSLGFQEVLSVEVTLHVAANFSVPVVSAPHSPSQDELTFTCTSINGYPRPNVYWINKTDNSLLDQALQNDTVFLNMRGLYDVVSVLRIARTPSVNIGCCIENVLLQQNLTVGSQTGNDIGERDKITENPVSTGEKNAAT
Test: flow cytometry on cells

binding result: binds
B1: human ICOSIg fusion protein (Fc fusion, UniProt Q9Y6W8 21-140, looked up)
chain: EINGSANYEMFIFHNGGVQILCKYPDIVQQFKMQLLKGGQILCDLTKTKGSGNTVSIKSLKFCHSQLSNNSVSFFLYNLDHSHANYYFCNLSIFDPPPFKVTLTGGYLHIYESQLCCQLK
